Experimental findings from US20200048649A1 (CENTRE NATIONAL DE LA RECHERCHE SCIENTIFIQUE, published 2020) are described below.

In assay [1] the target is T1, Grapevine fanleaf virus (GFLV) isolate F13 particles (capsid made of the coat protein, CP) (Grapevine fanleaf virus isolate F13, UniProt P18474 606-1109).
T1 sequence: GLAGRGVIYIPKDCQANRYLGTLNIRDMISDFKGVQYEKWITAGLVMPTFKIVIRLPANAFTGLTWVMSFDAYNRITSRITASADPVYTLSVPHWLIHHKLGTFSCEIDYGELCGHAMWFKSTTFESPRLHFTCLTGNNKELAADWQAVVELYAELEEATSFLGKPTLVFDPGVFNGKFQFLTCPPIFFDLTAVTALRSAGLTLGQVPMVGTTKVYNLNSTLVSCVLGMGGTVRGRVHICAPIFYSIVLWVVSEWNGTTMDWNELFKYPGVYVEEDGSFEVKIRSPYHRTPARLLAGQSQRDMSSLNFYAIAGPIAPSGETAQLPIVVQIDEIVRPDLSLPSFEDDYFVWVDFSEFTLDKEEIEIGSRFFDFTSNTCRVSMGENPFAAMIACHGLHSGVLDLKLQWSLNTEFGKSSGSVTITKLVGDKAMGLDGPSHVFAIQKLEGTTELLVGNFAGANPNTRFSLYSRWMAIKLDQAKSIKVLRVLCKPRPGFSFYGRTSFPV
In words: competitive ELISA on coated GFLV, legend of FIG. 19a. Background: In an ELISA, binding on a coated surface is turned into a signal by an enzyme label.

Assay [2] deals with T1, Grapevine fanleaf virus (GFLV) isolate …. The experiment in a line: DAS-ELISA on infected leaves, capture Ab Bioreba, detection Nbp75:ALP.
The target is the same in assay [3].
The target of assay [4] is T2, TRCP VLP (virus-like particle of GFLV CP fused at its N-terminus to TagRFP) (Grapevine fanleaf virus isolate F13 (CP …)).
T2 construct: also called TRCP VLPs; VLP-TRCP
In words: dynamic light scattering; TRCP VLP alone 32.0 nm±2 nm.

In assay [5] the target is T2, TRCP VLP (virus-like particle of GFLV …). In words: microscale thermophoresis in solution, fluorescent TRCP VLP constant, nanobody titrated, 1:1 model, n=3; SD ±13.63.
For assay [6] the target is unchanged. The experiment in a line: microscale thermophoresis in solution, fluorescent TRCP VLP constant, nanobody titrated, 1:1 model, n=3; SD ±2.91. (In MST a laser heats a spot of the sample, and binding alters the fluorescence response.)
Assay [7] has as its target T1, Grapevine fanleaf virus (GFLV) isolate …. In words: DAS-ELISA on infected leaves, capture by Ab BIOREBA, detection by Nb:ALP.
The target in assay [8] is T2, TRCP VLP (virus-like particle of GFLV …). In words: microscale thermophoresis in solution, fluorescent TRCP VLP constant, nanobody titrated, 1:1 model, n=3; SD ±3.37.

B1: Strep-tagged Nbp75 (VHH)
VHH: QVQLQESGGGSVQAGGSLRLSCVASEYPSSSTAMAWFRQAPGKEREGVAAINSVRHTTSYADSVKGRFTISKDNADNMMYLEMNSLKPEDTAIYYCAAADAIGLAEYWSTPTLSAARYKYWGQGTQVTVSS
On to B1, for which the binding result in assay [1] is on record as “binds”.

B2: Nbp75 fused to alkaline phosphatase (VHH)
VHH: QVQLQESGGGSVQAGGSLRLSCVASEYPSSSTAMAWFRQAPGKEREGVAAINSVRHTTSYADSVKGRFTISKDNADNMMYLEMNSLKPEDTAIYYCAAADAIGLAEYWSTPTLSAARYKYWGQGTQVTVSS
On to B2, for which the binding result in assay [2] is “binds”.

B3: Nb122 fused to alkaline phosphatase (VHH)
chain: MAQVQLQESGGGSVQGGGSLRLSCAVSGYRFSSYAMAWFRQAPGKEREAVAAYYRGFGGAQHSTHYAASVTGRFTITQNDALNTGYLQMNNLKPEDTAMYYCALSTADDDDWHSLRRYNYWGQGTQVTVSSGGGSGGGVKQSTIALALLPLLFTPVTKARTPEMPLQTQATSREEPPRLPSKHRPGVKTQATSREEPPRLPSKHRPGVKTQATSREEPPRLPSKHRPGVKTQATSREEPPRLPSKHRPGVKTQATSLEVLENRAAQGDITAPGGARRLTGDQTAALRDSLSDKPAKNIILLIGDGMGDSEITAARNYAEGAGGFFKGIDALPLTGQYTHYALNKKTGKPDYVTDSAASATAWSTGVKTYNGALGVDIHEKDHPTILEMAKAAGLATGNVSTAELQDATPAALVAHVTSRKCYGPSATSEKCPGNALEKGGKGSITEQLLNARADVTLGGGAKTFAETATAGEWQGKTLREQAQARGYQLVSDAASLNSVTEANQQKPLLGLFADGNMPVRWLGPKATYHGNIDKPAVTCTPNPQRNDSVPTLAQMTDKAIELLSKNEKGFFLQVEGASIDKQDHAANPCGQIGETVDLDEAVQRALEFAKKEGNTLVIVTADHAHASQIVAPDTKAPGLTQALNTKDGAVMVMSYGNSEEDSQEHTGSQLRIAAYGPHAAHHHHHH
Broadly, the EC50 (read off the curve) is the concentration at which the effect is half-maximal. Turning to B3, the half-maximal effective concentration (EC50 (read off the curve)) in assay [3] is approximately 10000 nM.

B4: Nb23 fused to bacterial alkaline phosphatase (VHH)
chain: QVQLQESGGGSVQVGGSLRVACAASGDTFSGYLAAWFRQAPGKGREGVAAINSKRHTTSYADSVKGRFTISKDNADNIMYLEMNSLKPEDTAIYYCAAADAIGLAEYWSTPTLSAARYKYWGQGTQVTVSSGGGSGGGVKQSTIALALLPLLFTPVTKARTPEMPLQTQATSREEPPRLPSKHRPGVKTQATSREEPPRLPSKHRPGVKTQATSREEPPRLPSKHRPGVKTQATSREEPPRLPSKHRPGVKTQATSLEVLENRAAQGDITAPGGARRLTGDQTAALRDSLSDKPAKNIILLIGDGMGDSEITAARNYAEGAGGFFKGIDALPLTGQYTHYALNKKTGKPDYVTDSAASATAWSTGVKTYNGALGVDIHEKDHPTILEMAKAAGLATGNVSTAELQDATPAALVAHVTSRKCYGPSATSEKCPGNALEKGGKGSITEQLLNARADVTLGGGAKTFAETATAGEWQGKTLREQAQARGYQLVSDAASLNSVTEANQQKPLLGLFADGNMPVRWLGPKATYHGNIDKPAVTCTPNPQRNDSVPTLAQMTDKAIELLSKNEKGFFLQVEGASIDKQDHAANPCGQIGETVDLDEAVQRALEFAKKEGNTLVIVTADHAHASQIVAPDTKAPGLTQALNTKDGAVMVMSYGNSEEDSQEHTGSQLRIAAYGPHAAHHHHHH
Consider B4, for which the “particle diameter of the VLP saturated with the nanobody (DLS)” value (from here on “particle diameter of the VLP saturated”) in assay [4] turned out to be 40 nm.

B5: Nanobody Nb122 (VHH)
VHH: QVQLQESGGGSVQGGGSLRLSCAVSGYRFSSYAMAWFRQAPGKEREAVAAYYRGFGGAQHSTHYAASVTGRFTITQNDALNTGYLQMNNLKPEDTAMYYCALSTADDDDWHSLRRYNYWGQGTQVTVSS
For orientation: Kd means the constant that tells how readily two partners part at equilibrium. A lower Kd goes with a tighter complex. Consider B5, for which, in assay [5], the Kd worked out at 34.5 nM.

B6: Strep-tagged Nb122 (VHH)
VHH: QVQLQESGGGSVQGGGSLRLSCAVSGYRFSSYAMAWFRQAPGKEREAVAAYYRGFGGAQHSTHYAASVTGRFTITQNDALNTGYLQMNNLKPEDTAMYYCALSTADDDDWHSLRRYNYWGQGTQVTVSS
With B6, the binding result in assay [1] is “binds”.

B7: Nanobody Nb23 (VHH)
VHH: QVQLQESGGGSVQVGGSLRVACAASGDTFSGYLAAWFRQAPGKGREGVAAINSKRHTTSYADSVKGRFTISKDNADNIMYLEMNSLKPEDTAIYYCAAADAIGLAEYWSTPTLSAARYKYWGQGTQVTVSS
B7: the “particle diameter of the VLP saturated” value in assay [4] was found to be 37.8 nm. In assay [6], this molecule registered a Kd of 9.13 nM.

B8: Nb23 fused to EGFP (VHH)
VHH: QVQLQESGGGSVQVGGSLRVACAASGDTFSGYLAAWFRQAPGKGREGVAAINSKRHTTSYADSVKGRFTISKDNADNIMYLEMNSLKPEDTAIYYCAAADAIGLAEYWSTPTLSAARYKYWGQGTQVTVSS
Consider B8, for which the “particle diameter of the VLP saturated” value in assay [4] was 43.8 nm.

B9: Nbp59 fused to alkaline phosphatase (VHH)
VHH: QVQLQESGGGTVQAGGSLRLSCSISGDTSNSYCMGWFRQAPGKEREVVAHISTGVISPGYNKFSEGRFTISPDNAKNSVYLQMNNLKPDDTAMYYCAARTGYCSGSWGVADSFNGWGQGTQVTVSS
Take B9: in assay [7], the binding result is given as “binds”.

B10: Nanobody Nbp59 (VHH)
VHH: QVQLQESGGGTVQAGGSLRLSCSISGDTSNSYCMGWFRQAPGKEREVVAHISTGVISPGYNKFSEGRFTISPDNAKNSVYLQMNNLKPDDTAMYYCAARTGYCSGSWGVADSFNGWGQGTQVTVSS
Molecule B10 registered a Kd in assay [8] of 12.6 nM.

B11: Strep-tagged Nbp59 (VHH)
VHH: QVQLQESGGGTVQAGGSLRLSCSISGDTSNSYCMGWFRQAPGKEREVVAHISTGVISPGYNKFSEGRFTISPDNAKNSVYLQMNNLKPDDTAMYYCAARTGYCSGSWGVADSFNGWGQGTQVTVSS
Turning to B11, in assay [1], the binding result is “binds”.

B12: Strep-tagged Nb125 (VHH)
VHH: QVQLQESGGGSVQAGGSLRLSCAASGYTYSMYCMAWFRQAPGKEREGVAAINSGNRSTYYADSVKGRFTISQDNAKNTVYLIMNSLKPEDTAIYYCAADPQRCGSWTWANMYEYNYWGQGTQVTVSS
B12: in assay [1], the binding result is “binds”.
